In the test the target is CD64, high affinity human FcgammaRI receptor, expressed on K562 cells (K64 cells) (human). Kind of test: flow cytometry of K64 cells loaded with FITC-labelled IgG2a for 1 h at 4 C, quantified with Immuno-Brite beads. For orientation: In flow cytometry, cells or beads pass a laser one at a time.

The text below walks through data of patent US20140212446A1.

In the case of “IgG2a-FITC-labeled antibodies (antibody)”, the antibodies bound to each cell (antibodies bound to each cell) lay within 2000 to 6000.
